Source: patent US20220306695A1, “COMPSTATIN ANALOGUES AND THEIR MEDICAL USES” (priority 2019, published 2022)
Starred links: 1 amine or outer side, 2 acyl side, 3 side chain; linkers in the order of their positions; H or OH if unused. Positions of bridges follow the written chain, without caps; N, C: chain ends. Non-standard residues stand in square brackets, D forms with d. Groups on a side chain read outwards from the residue. *: point of attachment. Trp(1-Me) = Cn1cc(C[C@H](N)C(=O)O)c2ccccc21; C18 diacid = O=C(O)CCCCCCCCCCCCCCCCC(=O)*; γGlu = O=C(O)[C@H](CCC(=O)[*:2])N[*:1]; hCys = N[C@@H](CCS)C(=O)O; AEEA = NCCOCCOCC(=O)O; Sar = CNCC(=O)O

B1: Compound 144 (peptide)
peptide: Ac-SEFCI[Trp(1-Me)]QDW[Sar]EHRC[Sar]E[AEEA][AEEA]K([γGlu-Gly-γGlu-C18 diacid])-NH2
modifications: disulfide 4-14
SMILES: CC[C@H](C)[C@@H]1NC(=O)[C@@H](NC(=O)[C@H](Cc2ccccc2)NC(=O)[C@H](CCC(=O)O)NC(=O)[C@H](CO)NC(C)=O)CSSC[C@@H](C(=O)N(C)CC(=O)N[C@@H](CCC(=O)O)C(=O)NCCOCCOCC(=O)NCCOCCOCC(=O)N[C@@H](CCCCNC(=O)CC[C@H](NC(=O)CNC(=O)CC[C@H](NC(=O)CCCCCCCCCCCCCCCCC(=O)O)C(=O)O)C(=O)O)C(N)=O)NC(=O)[C@H](CCCNC(=N)N)NC(=O)[C@H](Cc2c[nH]cn2)NC(=O)[C@H](CCC(=O)O)NC(=O)CN(C)C(=O)[C@H](Cc2c[nH]c3ccccc23)NC(=O)[C@H](CC(=O)O)NC(=O)[C@H](CCC(N)=O)NC(=O)[C@H](Cc2cn(C)c3ccccc23)NC1=O
B2: Compound 151 (peptide)
peptide: Ac-SEFAI[Trp(1-Me)]QDWGEHR[hCys]TGAES-NH2
modifications: thioether 4-14
SMILES: CC[C@H](C)[C@@H]1NC(=O)[C@@H](NC(=O)[C@H](Cc2ccccc2)NC(=O)[C@H](CCC(=O)O)NC(=O)[C@H](CO)NC(C)=O)CSCC[C@@H](C(=O)N[C@H](C(=O)NCC(=O)N[C@@H](C)C(=O)N[C@@H](CCC(=O)O)C(=O)N[C@@H](CO)C(N)=O)[C@@H](C)O)NC(=O)[C@H](CCCNC(=N)N)NC(=O)[C@H](Cc2c[nH]cn2)NC(=O)[C@H](CCC(=O)O)NC(=O)CNC(=O)[C@H](Cc2c[nH]c3ccccc23)NC(=O)[C@H](CC(=O)O)NC(=O)[C@H](CCC(N)=O)NC(=O)[C@H](Cc2cn(C)c3ccccc23)NC1=O
B3: Compound 10 (peptide)
peptide: Ac-ESSAYCIWQDWGEHRCT-NH2
modifications: disulfide 6-16
SMILES: CC[C@H](C)[C@@H]1NC(=O)[C@@H](NC(=O)[C@H](Cc2ccc(O)cc2)NC(=O)[C@H](C)NC(=O)[C@H](CO)NC(=O)[C@H](CO)NC(=O)[C@H](CCC(=O)O)NC(C)=O)CSSC[C@@H](C(=O)N[C@H](C(N)=O)[C@@H](C)O)NC(=O)[C@H](CCCNC(=N)N)NC(=O)[C@H](Cc2c[nH]cn2)NC(=O)[C@H](CCC(=O)O)NC(=O)CNC(=O)[C@H](Cc2c[nH]c3ccccc23)NC(=O)[C@H](CC(=O)O)NC(=O)[C@H](CCC(N)=O)NC(=O)[C@H](Cc2c[nH]c3ccccc23)NC1=O
B4: Compound 161 (peptide)
peptide: Ac-EFAI[Trp(1-Me)]QDWGEHR[hCys]EGEK([γGlu-Gly-γGlu-C18 diacid])-NH2
modifications: thioether 3-13
SMILES: CC[C@H](C)[C@@H]1NC(=O)[C@@H](NC(=O)[C@H](Cc2ccccc2)NC(=O)[C@H](CCC(=O)O)NC(C)=O)CSCC[C@@H](C(=O)N[C@@H](CCC(=O)O)C(=O)NCC(=O)N[C@@H](CCC(=O)O)C(=O)N[C@@H](CCCCNC(=O)CC[C@H](NC(=O)CNC(=O)CC[C@H](NC(=O)CCCCCCCCCCCCCCCCC(=O)O)C(=O)O)C(=O)O)C(N)=O)NC(=O)[C@H](CCCNC(=N)N)NC(=O)[C@H](Cc2c[nH]cn2)NC(=O)[C@H](CCC(=O)O)NC(=O)CNC(=O)[C@H](Cc2c[nH]c3ccccc23)NC(=O)[C@H](CC(=O)O)NC(=O)[C@H](CCC(N)=O)NC(=O)[C@H](Cc2cn(C)c3ccccc23)NC1=O
B5: Compound 12 (peptide)
peptide: Ac-ICIWQDWGAHRCE-NH2
modifications: disulfide 2-12
SMILES: CC[C@H](C)[C@H](NC(C)=O)C(=O)N[C@H]1CSSC[C@@H](C(=O)N[C@@H](CCC(=O)O)C(N)=O)NC(=O)[C@H](CCCNC(=N)N)NC(=O)[C@H](Cc2c[nH]cn2)NC(=O)[C@H](C)NC(=O)CNC(=O)[C@H](Cc2c[nH]c3ccccc23)NC(=O)[C@H](CC(=O)O)NC(=O)[C@H](CCC(N)=O)NC(=O)[C@H](Cc2c[nH]c3ccccc23)NC(=O)[C@H]([C@@H](C)CC)NC1=O
B6: Compound 14 (peptide)
peptide: Ac-ESSAICIWQDWGEHRCTGAES-NH2
modifications: disulfide 6-16
SMILES: CC[C@H](C)[C@H](NC(=O)[C@H](C)NC(=O)[C@H](CO)NC(=O)[C@H](CO)NC(=O)[C@H](CCC(=O)O)NC(C)=O)C(=O)N[C@H]1CSSC[C@@H](C(=O)N[C@H](C(=O)NCC(=O)N[C@@H](C)C(=O)N[C@@H](CCC(=O)O)C(=O)N[C@@H](CO)C(N)=O)[C@@H](C)O)NC(=O)[C@H](CCCNC(=N)N)NC(=O)[C@H](Cc2c[nH]cn2)NC(=O)[C@H](CCC(=O)O)NC(=O)CNC(=O)[C@H](Cc2c[nH]c3ccccc23)NC(=O)[C@H](CC(=O)O)NC(=O)[C@H](CCC(N)=O)NC(=O)[C@H](Cc2c[nH]c3ccccc23)NC(=O)[C@H]([C@@H](C)CC)NC1=O
B7: Compound 16 (peptide)
peptide: Ac-ICIWQEWGEHRCT-NH2
modifications: disulfide 2-12
SMILES: CC[C@H](C)[C@H](NC(C)=O)C(=O)N[C@H]1CSSC[C@@H](C(=O)N[C@H](C(N)=O)[C@@H](C)O)NC(=O)[C@H](CCCNC(=N)N)NC(=O)[C@H](Cc2c[nH]cn2)NC(=O)[C@H](CCC(=O)O)NC(=O)CNC(=O)[C@H](Cc2c[nH]c3ccccc23)NC(=O)[C@H](CCC(=O)O)NC(=O)[C@H](CCC(N)=O)NC(=O)[C@H](Cc2c[nH]c3ccccc23)NC(=O)[C@H]([C@@H](C)CC)NC1=O
B8: Compound 17 (peptide)
peptide: Ac-ICIWQDWGDHRCT-NH2
modifications: disulfide 2-12
SMILES: CC[C@H](C)[C@H](NC(C)=O)C(=O)N[C@H]1CSSC[C@@H](C(=O)N[C@H](C(N)=O)[C@@H](C)O)NC(=O)[C@H](CCCNC(=N)N)NC(=O)[C@H](Cc2c[nH]cn2)NC(=O)[C@H](CC(=O)O)NC(=O)CNC(=O)[C@H](Cc2c[nH]c3ccccc23)NC(=O)[C@H](CC(=O)O)NC(=O)[C@H](CCC(N)=O)NC(=O)[C@H](Cc2c[nH]c3ccccc23)NC(=O)[C@H]([C@@H](C)CC)NC1=O
B9: Compound 18 (peptide)
peptide: Ac-ICIWQDWGRHRCT-NH2
modifications: disulfide 2-12
SMILES: CC[C@H](C)[C@H](NC(C)=O)C(=O)N[C@H]1CSSC[C@@H](C(=O)N[C@H](C(N)=O)[C@@H](C)O)NC(=O)[C@H](CCCNC(=N)N)NC(=O)[C@H](Cc2c[nH]cn2)NC(=O)[C@H](CCCNC(=N)N)NC(=O)CNC(=O)[C@H](Cc2c[nH]c3ccccc23)NC(=O)[C@H](CC(=O)O)NC(=O)[C@H](CCC(N)=O)NC(=O)[C@H](Cc2c[nH]c3ccccc23)NC(=O)[C@H]([C@@H](C)CC)NC1=O
B10: Compound 22 (peptide)
peptide: Ac-ICIWQDWGEHRCE-NH2
modifications: disulfide 2-12
SMILES: CC[C@H](C)[C@H](NC(C)=O)C(=O)N[C@H]1CSSC[C@@H](C(=O)N[C@@H](CCC(=O)O)C(N)=O)NC(=O)[C@H](CCCNC(=N)N)NC(=O)[C@H](Cc2c[nH]cn2)NC(=O)[C@H](CCC(=O)O)NC(=O)CNC(=O)[C@H](Cc2c[nH]c3ccccc23)NC(=O)[C@H](CC(=O)O)NC(=O)[C@H](CCC(N)=O)NC(=O)[C@H](Cc2c[nH]c3ccccc23)NC(=O)[C@H]([C@@H](C)CC)NC1=O
B11: Compound 25 (peptide)
peptide: Ac-ICIWQDWGEHRCTEA-NH2
modifications: disulfide 2-12
SMILES: CC[C@H](C)[C@H](NC(C)=O)C(=O)N[C@H]1CSSC[C@@H](C(=O)N[C@H](C(=O)N[C@@H](CCC(=O)O)C(=O)N[C@@H](C)C(N)=O)[C@@H](C)O)NC(=O)[C@H](CCCNC(=N)N)NC(=O)[C@H](Cc2c[nH]cn2)NC(=O)[C@H](CCC(=O)O)NC(=O)CNC(=O)[C@H](Cc2c[nH]c3ccccc23)NC(=O)[C@H](CC(=O)O)NC(=O)[C@H](CCC(N)=O)NC(=O)[C@H](Cc2c[nH]c3ccccc23)NC(=O)[C@H]([C@@H](C)CC)NC1=O
B12: Compound 26 (peptide)
peptide: Ac-ICIWQDWGEHRCTE-NH2
modifications: disulfide 2-12
SMILES: CC[C@H](C)[C@H](NC(C)=O)C(=O)N[C@H]1CSSC[C@@H](C(=O)N[C@H](C(=O)N[C@@H](CCC(=O)O)C(N)=O)[C@@H](C)O)NC(=O)[C@H](CCCNC(=N)N)NC(=O)[C@H](Cc2c[nH]cn2)NC(=O)[C@H](CCC(=O)O)NC(=O)CNC(=O)[C@H](Cc2c[nH]c3ccccc23)NC(=O)[C@H](CC(=O)O)NC(=O)[C@H](CCC(N)=O)NC(=O)[C@H](Cc2c[nH]c3ccccc23)NC(=O)[C@H]([C@@H](C)CC)NC1=O
B13: Compound 27 (peptide)
peptide: Ac-ICIWQDWGEHRCEGE-NH2
modifications: disulfide 2-12
SMILES: CC[C@H](C)[C@H](NC(C)=O)C(=O)N[C@H]1CSSC[C@@H](C(=O)N[C@@H](CCC(=O)O)C(=O)NCC(=O)N[C@@H](CCC(=O)O)C(N)=O)NC(=O)[C@H](CCCNC(=N)N)NC(=O)[C@H](Cc2c[nH]cn2)NC(=O)[C@H](CCC(=O)O)NC(=O)CNC(=O)[C@H](Cc2c[nH]c3ccccc23)NC(=O)[C@H](CC(=O)O)NC(=O)[C@H](CCC(N)=O)NC(=O)[C@H](Cc2c[nH]c3ccccc23)NC(=O)[C@H]([C@@H](C)CC)NC1=O
B14: Compound 30 (peptide)
peptide: Ac-EGEICIWQDWGEHRCT-NH2
modifications: disulfide 5-15
SMILES: CC[C@H](C)[C@@H]1NC(=O)[C@@H](NC(=O)[C@@H](NC(=O)[C@H](CCC(=O)O)NC(=O)CNC(=O)[C@H](CCC(=O)O)NC(C)=O)[C@@H](C)CC)CSSC[C@@H](C(=O)N[C@H](C(N)=O)[C@@H](C)O)NC(=O)[C@H](CCCNC(=N)N)NC(=O)[C@H](Cc2c[nH]cn2)NC(=O)[C@H](CCC(=O)O)NC(=O)CNC(=O)[C@H](Cc2c[nH]c3ccccc23)NC(=O)[C@H](CC(=O)O)NC(=O)[C@H](CCC(N)=O)NC(=O)[C@H](Cc2c[nH]c3ccccc23)NC1=O

Molecular target: Human C3 (human, UniProt P01024 23-1663)
Sequence (P01024 23-1663 limits assumed): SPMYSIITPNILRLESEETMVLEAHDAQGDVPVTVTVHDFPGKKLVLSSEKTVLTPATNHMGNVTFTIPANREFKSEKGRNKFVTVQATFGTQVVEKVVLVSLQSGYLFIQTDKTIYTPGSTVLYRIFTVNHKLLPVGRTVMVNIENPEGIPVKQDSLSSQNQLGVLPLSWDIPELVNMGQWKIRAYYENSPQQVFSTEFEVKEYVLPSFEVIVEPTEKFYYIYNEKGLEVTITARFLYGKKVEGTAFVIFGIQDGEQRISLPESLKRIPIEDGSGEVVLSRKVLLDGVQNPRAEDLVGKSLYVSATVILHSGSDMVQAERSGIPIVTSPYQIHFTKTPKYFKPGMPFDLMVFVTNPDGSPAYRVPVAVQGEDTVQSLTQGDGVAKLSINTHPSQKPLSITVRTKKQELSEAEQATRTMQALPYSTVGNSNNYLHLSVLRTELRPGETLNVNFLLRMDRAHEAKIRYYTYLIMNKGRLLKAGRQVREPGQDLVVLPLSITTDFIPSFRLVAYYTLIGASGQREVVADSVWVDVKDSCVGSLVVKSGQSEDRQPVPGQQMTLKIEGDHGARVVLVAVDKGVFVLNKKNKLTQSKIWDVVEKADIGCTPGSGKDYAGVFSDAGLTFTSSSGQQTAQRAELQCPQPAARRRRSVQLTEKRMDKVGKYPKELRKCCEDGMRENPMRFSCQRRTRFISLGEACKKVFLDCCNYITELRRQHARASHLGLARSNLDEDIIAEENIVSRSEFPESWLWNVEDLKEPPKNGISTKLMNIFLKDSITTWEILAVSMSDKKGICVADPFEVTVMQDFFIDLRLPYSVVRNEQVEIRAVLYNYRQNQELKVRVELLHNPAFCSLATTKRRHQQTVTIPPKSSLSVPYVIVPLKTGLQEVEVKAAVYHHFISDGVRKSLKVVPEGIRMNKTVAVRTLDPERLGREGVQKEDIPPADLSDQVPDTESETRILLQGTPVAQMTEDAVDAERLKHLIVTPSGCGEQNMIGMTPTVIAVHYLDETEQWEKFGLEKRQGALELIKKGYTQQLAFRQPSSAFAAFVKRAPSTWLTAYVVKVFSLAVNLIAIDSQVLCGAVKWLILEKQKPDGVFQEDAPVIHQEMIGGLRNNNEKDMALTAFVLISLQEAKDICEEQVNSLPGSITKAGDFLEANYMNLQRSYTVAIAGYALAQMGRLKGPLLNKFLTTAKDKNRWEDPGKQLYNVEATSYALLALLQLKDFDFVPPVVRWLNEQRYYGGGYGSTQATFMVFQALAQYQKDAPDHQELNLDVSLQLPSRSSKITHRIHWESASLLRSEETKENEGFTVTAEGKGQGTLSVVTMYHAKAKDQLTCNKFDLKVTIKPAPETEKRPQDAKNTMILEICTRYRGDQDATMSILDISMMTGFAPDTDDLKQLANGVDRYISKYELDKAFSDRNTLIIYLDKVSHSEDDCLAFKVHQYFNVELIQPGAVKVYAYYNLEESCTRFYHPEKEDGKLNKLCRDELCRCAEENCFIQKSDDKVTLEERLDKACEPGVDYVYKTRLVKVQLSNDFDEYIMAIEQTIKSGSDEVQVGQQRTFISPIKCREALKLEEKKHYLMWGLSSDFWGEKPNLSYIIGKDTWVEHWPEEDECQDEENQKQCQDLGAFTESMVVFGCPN
Assay: cell-based or functional assay

Row | Binder | IC50[nM], inhibition of hemolysis
1 | B1 | < 100 nM
2 | B2 | < 100 nM
3 | B3 | < 100 nM
4 | B4 | < 100 nM
5 | B5 | < 100 nM
6 | B6 | < 100 nM
7 | B7 | < 100 nM
8 | B8 | < 100 nM
9 | B9 | < 100 nM
10 | B10 | < 100 nM
11 | B11 | < 100 nM
12 | B12 | < 100 nM
13 | B13 | < 100 nM
14 | B14 | < 100 nM
